Data from article PMC4303294 (Biochemistry, 2014).

Target: the molecule itself
Assay: SEC

B1: nitrophorin 4 (NP4) reconstituted with the symmetrical hemin, 2,4-dimethyldeuterohemin (natural protein, Rhodnius prolixus, UniProt Q94734 22-205, looked up)
chain: ACTKNAIAQTGFNKDKYFNGDVWYVTDYLDLEPDDVPKRYCAALAAGTASGKLKEALYHYDPKTQDTFYDVSELQVESLGKYTANFKKVDKNGNVKVAVTAGNYYTFTVMYADDSSALIHTCLHKGNKDLGDLYAVLNRNKDAAAGDKVKSAVSAATLEFSKFISTKENNCAYDNDSLKSLLTK
stoichiometry N: 2
